Several values for one entry are separate records, joined by “and”; a condition that tells them apart may be missing. Equal values may be shown once.
Target: the molecule itself
Test: SDS-PAGE with immunoblot

B1: HIR2-HA expressed in Nicotiana benthamiana (natural protein, Arabidopsis thaliana, UniProt Q9SRH6 1-285, looked up)
chain: MGNLFCCVLVKQSDVAVKERFGKFQKVLNPGLQFVPWVIGDYVAGTLTLRLQQLDVQCETKTKDNVFVTVVASIQYRVLADKASDAFYRLSNPTTQIKAYVFDVIRACVPKLNLDDVFEQKNEIAKSVEEELDKAMTAYGYEILQTLIIDIEPDQQVKRAMNEINAAARMRVAASEKAEAEKIIQIKRAEGEAESKYLSGLGIARQRQAIVDGLRDSVLGFAGNVPGTSAKDVLDMVMMTQYFDTMRDIGATSKSSAVFIPHGPGAVSDVAAQIRNGLLQANNAS
stoichiometry N: 2 and 4 and 6

Reference: paper doi:10.1101/2025.04.11.648320 (bioRxiv, 2025)
